Data reported in the supplement of paper PMC9732359.
± gives the uncertainty stated by the source.

Assay: protein stability index of a GFP-peptide fusion (yeast GPS) (PSI 1-4); higher = more stable; sorted into four equal gates, so the index is relative within each strain
How it was run: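 The protein stability index of a peptide was calculated by multiplying its read frequency in each gate by that gate's number and adding the products. The peptides were tiled 17-residue stretches of yeast proteins, fused downstream of GFP on a Cherry-expressing plasmid and carried in yeast as a pooled library. Mid-log cultures in leucine-free medium were sorted into four equal gates by GFP/Cherry ratio, and each gate's plasmids were PCR-amplified and Illumina-sequenced.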

Sequence | protein stability index (pdr5∆) | protein stability index (san1∆) | protein stability index (ubr1∆) | protein stability index (doa10∆)
PSEIPDAHKAEQEDIIE [SWI3] | 3.29 ± 0.14 | 3.46 ± 0.12 | 3.05 ± 0.17 | –
GRYAGKKVVIVKPHDEG [RPL27A] | 2.72 ± 0.21 | – | 2.29 ± 0.26 | 3.25 ± 0.25
MLKYRRLFIGDQNNKKM [SNF2] | 2.82 ± 0.073 | 2.47 ± 0.094 | 2.63 ± 0.057 | 2.62 ± 0.097
LRQLASYYSREQDALFI [RPN1] | 1.8 ± 0.046 | 1.63 ± 0.08 | 1.81 ± 0.042 | 1.7 ± 0.045
THEDLPKEVDGLEVGPV [IRR1] | 3.35 ± 0.11 | 3.06 ± 0.094 | 3.18 ± 0.086 | 3.21 ± 0.091
NEIIRSLSDEVMRNEIR [SIR4] | 2.1 ± 0.048 | 2.52 ± 0.068 | 2.39 ± 0.049 | 2.64 ± 0.058
DGSQQNLQQDKTNFQDV [REC8] | 3.38 ± 0.054 | 3.42 ± 0.068 | 3.3 ± 0.038 | 3.23 ± 0.071
DNTVRTSANGIVQFTYG [RPO31] | 2.76 ± 0.1 | 2.25 ± 0.17 | 2.53 ± 0.11 | 2.67 ± 0.1
SLISVLEASLNSITKDN [YJL039C/NUP192] | 2.24 ± 0.038 | 2.31 ± 0.048 | 2.09 ± 0.026 | 2.46 ± 0.052
VHTANFSERGSNTRTMT [MED2] | 3.35 ± 0.26 | 3.08 ± 0.14 | 3.26 ± 0.22 | 3.37 ± 0.3
SNKPIFLFAPELGAINL [SWI1] | 1.91 ± 0.051 | 2.08 ± 0.089 | 2.11 ± 0.046 | 2.23 ± 0.062
PSLKFKPKAVARKSKEE [RPC53] | 2.65 ± 0.086 | 2.43 ± 0.07 | 2.88 ± 0.077 | 2.82 ± 0.12
LKYLDDLKAQFQELDSK [RPN9] | 3.23 ± 0.069 | 3.12 ± 0.075 | 3.2 ± 0.064 | 3.13 ± 0.097
LSHGSLEHVLLVPTASF [FAS1] | 1.4 ± 0.043 | 1.33 ± 0.079 | 1.19 ± 0.029 | 1.24 ± 0.039
VCMHCGKLLLDEHNELM [RPO21] | 2.94 ± 0.18 | 2.77 ± 0.28 | 3.14 ± 0.084 | –
SYANHLEESDVEDTLHV [YOR098C/NUP1] | 2.4 ± 0.065 | 2.13 ± 0.081 | 1.97 ± 0.051 | 2.98 ± 0.082
TNFEILNEMLNTRKNMS [DIS3] | 3.07 ± 0.091 | 3.06 ± 0.054 | 3.09 ± 0.041 | 2.97 ± 0.059
GSNNAQTSRGLFGNNNT [YGL172W/NUP49] | 3.25 ± 0.074 | 3.14 ± 0.046 | 3.16 ± 0.1 | 3.24 ± 0.087
CDSYLDADKELSFEINV [BRR2] | 2.73 ± 0.062 | 2.92 ± 0.057 | 2.7 ± 0.047 | 2.64 ± 0.08
ASAPLCSPKLPVEKVQR [DLS1] | 3.07 ± 0.067 | 2.92 ± 0.053 | 3.03 ± 0.049 | 2.78 ± 0.068
ADLSSSEEEEDEEENGS [SSN2] | 3.51 ± 0.12 | 3.59 ± 0.084 | 3.29 ± 0.064 | 3.36 ± 0.087
ANIELTWAEGTFEQFKD [RPC37] | 3.18 ± 0.076 | 3.31 ± 0.16 | 3.32 ± 0.093 | 3.25 ± 0.12
STSYAIKKKDELERVAK [RPS5] | 3.52 ± 0.11 | 3.33 ± 0.061 | 3.35 ± 0.081 | 3.44 ± 0.084
CVYVPNFNASLQLTTNT [SNM1] | 2.71 ± 0.047 | 2.52 ± 0.047 | 2.02 ± 0.065 | 2.06 ± 0.038
KTDLELLVERLKEDDSS [RPN1] | 3.3 ± 0.14 | 3.05 ± 0.1 | 3.18 ± 0.17 | 3.18 ± 0.11
ASAASEAIRDPKNSSSP [SSN8] | 3.18 ± 0.2 | 2.46 ± 0.25 | 3.13 ± 0.13 | 2.61 ± 0.19

Sequence | protein stability index (pdr5∆) | protein stability index (san1∆) | protein stability index (ubr1∆) | protein stability index (doa10∆)
RAQLENEIEGKNEETPQ [RPC25] | 3.23 ± 0.14 | 2.47 ± 0.2 | 3.38 ± 0.078 | –
SKLLVPQKNVKIQVVDR [PRE10] | 2.84 ± 0.049 | 2.53 ± 0.099 | 2.72 ± 0.052 | 3.02 ± 0.074
MSQYQSTMKENKDLSEL [YIL149C/MLP2] | 3.12 ± 0.11 | – | 2.76 ± 0.092 | 3 ± 0.16
MSDAVTIRTRKVISNPL [RPS24A] | 2.69 ± 0.13 | 2.97 ± 0.13 | 2.23 ± 0.14 | 2.78 ± 0.23
TLEDKFLLLAVNKYGLR [ISW2] | 2.15 ± 0.058 | 1.9 ± 0.11 | 2.29 ± 0.049 | 2.31 ± 0.058
KKNKRALPNIENDIIKL [BRR2] | 3.36 ± 0.062 | 3.23 ± 0.04 | 3.34 ± 0.037 | 3.09 ± 0.054
GRLSLRSLTAYAPNLML [QCR10] | 1.9 ± 0.051 | 1.63 ± 0.081 | 1.42 ± 0.06 | 1.26 ± 0.041
TETEVEREQPQENKNID [SRB4] | 3.41 ± 0.091 | 3.07 ± 0.068 | 3.62 ± 0.089 | 3.42 ± 0.1
RIGKHRKHPGGRGMAGG [RPL28] | 2.63 ± 0.24 | 2.97 ± 0.1 | 3.22 ± 0.16 | 2.92 ± 0.12
DSSSNTYRSRAQQVPPY [SIN4] | 2.88 ± 0.17 | 3.15 ± 0.062 | 1.61 ± 0.11 | 2.89 ± 0.097
QPKRNLSRYVKWPEYVR [RPL8A] | 2.98 ± 0.046 | 3.06 ± 0.06 | 2.99 ± 0.066 | 2.87 ± 0.096
AKLIRSAIEHTTLKSVT [RPO21] | 2.96 ± 0.2 | 3.19 ± 0.19 | 3.04 ± 0.12 | 3.46 ± 0.15
NLCKIIEPFECVEISHI [RPN6] | 2.09 ± 0.2 | 1.97 ± 0.11 | – | 2.27 ± 0.12
LNEITNSKVNKLNIETM [DSN1] | 2.9 ± 0.097 | 2.54 ± 0.077 | 3.08 ± 0.051 | 2.81 ± 0.16
IKVENLNDTTEKSKALE [SMC2] | 3.3 ± 0.092 | 3.35 ± 0.052 | 3.25 ± 0.059 | 3.07 ± 0.082
LDERFASRVALNKEKLG [IRR1] | 1.52 ± 0.1 | 1.57 ± 0.18 | 1.55 ± 0.087 | 1.27 ± 0.057
PKAVVDHINGSGKRKPT [GAL11] | 2.81 ± 0.064 | 1.52 ± 0.11 | 2.16 ± 0.079 | 2.25 ± 0.076
KSSNDTIEHAADITDGN [YCG1] | 3.16 ± 0.2 | 3.23 ± 0.17 | 3.3 ± 0.15 | 2.98 ± 0.25
FTITVARKYLQTRWGLP [FAS2] | 1.29 ± 0.1 | 1.36 ± 0.21 | 1.96 ± 0.29 | 1.44 ± 0.092
AFGLGAIMSKSSLEELL [ECM29] | 2.07 ± 0.074 | 1.71 ± 0.12 | 2.06 ± 0.052 | 1.83 ± 0.089
WELYTDFNEIVQYLSGA [POP3] | 2.31 ± 0.12 | 2.4 ± 0.075 | 2.43 ± 0.075 | 2.55 ± 0.13
QQQQQQQQQTSPPPQTH [SNF5] | 2.862 ± 0.011 | 2.799 ± 0.01 | 2.824 ± 0.009 | 2.765 ± 0.011
TAQEINFKMLVLLATWN [IRR1] | 2.04 ± 0.047 | 2.14 ± 0.051 | 1.83 ± 0.031 | 1.84 ± 0.039
DFSARTVISGDPNLELD [RPO21] | 2.79 ± 0.21 | 2.58 ± 0.15 | 2.47 ± 0.13 | 3.29 ± 0.22
DSRKNREQSSNDSETHT [BRN1] | 3.34 ± 0.19 | 3.34 ± 0.11 | 3.52 ± 0.14 | 3.68 ± 0.17
